# Measurements: paper PMC12317118
# Target: YFPN-hAQP4 (human aquaporin 4 fused N-terminally to the YFPN fragment) (human) (UniProt P55087)
# Experiment: split reporter (BiFC, NanoBiT); YFPN-hAQP and YFPC-CaM co-expressed in S. cerevisiae; living cells at OD600 0.5 read by flow cytometry (FACSMelody, excitation 488 nm, FITC channel 527/32 nm); fluorescence frequency and intensity of gated cells; three transformations, ten replicates each
# Sequence of UniProt P55087 (P55087 whole entry, the tested form may be a part): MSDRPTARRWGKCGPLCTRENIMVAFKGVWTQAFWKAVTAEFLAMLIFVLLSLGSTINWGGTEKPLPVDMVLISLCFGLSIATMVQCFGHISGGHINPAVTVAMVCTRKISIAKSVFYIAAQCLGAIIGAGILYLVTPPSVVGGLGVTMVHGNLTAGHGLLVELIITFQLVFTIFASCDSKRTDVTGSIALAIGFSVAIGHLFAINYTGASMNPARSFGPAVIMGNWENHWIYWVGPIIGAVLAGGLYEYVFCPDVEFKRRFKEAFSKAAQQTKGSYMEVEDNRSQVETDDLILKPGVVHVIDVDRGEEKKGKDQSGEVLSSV
substance,measurement,value
YFPC-CaM (calmodulin fused N-terminally to the YFPC fragment) (from UniProt P0DP23 1-149) (natural protein),average fluorescence intensity (BiFC),1700
